T1: human LAG-3 domain 1-2 Fc fusion, chimeric construct #23 (mutated region AA 148-152) (human, UniProt P18627 23-266)
T1 construct: not shown: human IgG1 Fc, AA P101-K330
T1 chain: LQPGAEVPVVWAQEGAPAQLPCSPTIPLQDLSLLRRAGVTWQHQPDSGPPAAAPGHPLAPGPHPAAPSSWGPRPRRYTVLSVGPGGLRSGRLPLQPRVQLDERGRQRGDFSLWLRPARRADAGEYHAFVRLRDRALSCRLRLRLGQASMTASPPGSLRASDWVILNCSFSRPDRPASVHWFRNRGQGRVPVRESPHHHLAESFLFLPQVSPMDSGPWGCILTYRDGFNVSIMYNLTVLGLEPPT


Biological target: T1, human LAG-3 domain 1-2 Fc fusion, …
Assay: SPR, Fab over captured mutant LAG-3-Fc;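 further: LAG-3 fusion proteins captured on an anti-human IgG Fc sensor chip and read on an IBIS MX96 biosensor, Fab association and dissociation each 15 min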

Binder	KD mutant/KD wild type [fold]	binding result
Fab fragment of antibody 15532 (Fab, V domains shown, not shown: a dimerising Fc or GST, monomeric Fab made by GingisKHAN digestion of the IgG1) VH: QVQLQQWGAGLLRPSETLSLTCAVYGESFSGYYWNWIRQPPGKGLEWIGEINHSGSTNYNPSLKSRVTISVDTSKTQFSLKLSSVTAADTAVYYCARGWDLLDWNDYWNEYWGQGTLVTVSS VL: EIVLTQSPATLSLSPGERATLSCRASQSVSSYLAWYQQKPGQAPRLLIYDASNRATGIPARFSGSGSGTDFTLTISSLEPEDFAVYYCQQRSNWPLTFGGGTKVEIKR	2.5	
Fab fragment of antibody 15431 (Fab, V domains shown, not shown: a dimerising Fc or GST, monomeric Fab made by GingisKHAN digestion of the IgG1) VH: QVQLQQSGPGLVKPSQTLSLTCAISGDSVSSNSAAWNWIRQSPSRGLEWLGRTYYRSKWYNDYAVSVKSRITINPDTSKNQFSLQLNSVTPEDTAVYYCARDDDWNDFDYWGQGTLVTVSS VL: EIVLTQSPATLSLSPGERATLSCRASQSVSSYLAWYQQKPGQAPRLLIYDASNRATGIPARFSGSGSGTDFTLTISSLEPEDFAVYYCQQRSNWPLTFGGGTKVEIKR	3.5	
Fab fragment of antibody 15572 (Fab, V domains shown, not shown: a dimerising Fc or GST, monomeric Fab made by GingisKHAN digestion of the IgG1) VH: QLQLQESGPGLVKPSETLSLTCTVSGDSISSSSYYWGWIRQPPGKGLEWIGSIFYSGNTYYNPSLKSRVTISVDTSKNQFSLKLSSVTAADTAVYYCAREDDFLTDYYGAFDIWGQGTMVTVSS VL: not shown		no binding (tested: 300 nM)
Fab fragment of antibody 15011 (Fab, V domains shown, not shown: a dimerising Fc or GST, monomeric Fab made by GingisKHAN digestion of the IgG1) VH: EVQLLESGGGLVQPGGSLRLSCAASGFDFRSYAMMWVRQAPGKGLEWVGGINGEVGGSNTYYAPAVKGRATISRDNSKNTLYLQMNSLRAEDTAVYYCVKGAGACGICNDDIDAWGQGTLVTVSS VL: SYELTQDPAVSVALGQTVRITCSGAGSYAGSYYYGWHQQKPGQAPVTVIYDNDKRPSNIPDRFSGSSSGNTASLTITGAQAEDEADYYCGSTNDNDDGGLFGSGTKVTVLG	2	

Source: patent publication US20220363757A1 (SYMPHOGEN A S, published 2022)
